From US20240254222A1 (Bayer, published 2024)

Legend:
[1] = target: Human Semaphorin3A-Fc (R&D Systems), TPP-13211 (human); test: cell-based or functional assay
[2] = target: T1, Human Semaphorin3A-Sema Domain, TPP-19068 (human, UniProt Q14563 21-569); test: SPR, 100 nM TPP-19068, binding experiment
T1 construct: produced inhouse in HEK293-6E; also called human monovalent Sema3A domain
T1 sequence: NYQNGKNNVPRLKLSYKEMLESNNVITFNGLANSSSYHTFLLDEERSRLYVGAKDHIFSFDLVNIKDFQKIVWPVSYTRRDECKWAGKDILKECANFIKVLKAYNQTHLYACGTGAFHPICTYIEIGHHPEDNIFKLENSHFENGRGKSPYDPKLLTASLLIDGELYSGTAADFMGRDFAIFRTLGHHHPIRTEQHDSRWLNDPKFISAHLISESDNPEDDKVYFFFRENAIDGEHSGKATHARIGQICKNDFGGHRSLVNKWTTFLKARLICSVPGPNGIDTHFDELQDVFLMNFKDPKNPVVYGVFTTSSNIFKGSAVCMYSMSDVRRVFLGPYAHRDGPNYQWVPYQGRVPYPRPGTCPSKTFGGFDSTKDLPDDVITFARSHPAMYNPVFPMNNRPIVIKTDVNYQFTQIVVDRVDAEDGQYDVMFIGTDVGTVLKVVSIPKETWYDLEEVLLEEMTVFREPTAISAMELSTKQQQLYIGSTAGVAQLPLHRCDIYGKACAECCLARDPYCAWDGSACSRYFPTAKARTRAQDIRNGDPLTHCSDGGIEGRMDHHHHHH
Description: To assess the binding kinetics and affinity of anti-Sema3A antibodies as well as their species cross-reactivity profile, binding assays were conducted using surface plasmon resonance (SPR). Binding assays were performed on a Biacore T200 instrument or on a Biacore 8K+ instrument (Cytiva) at 25° C. using assay buffer HBS P+, 300 mM NaCl, 0.75 mM CaCl₂, 2.5 mM MgCl₂, 1 mg/ml BSA, 0.05% NaN₃. Antibodies were captured either via anti-human Fc IgGs (“Human antibody capture kit”, Order No. BR100839, Cytiva) or in case of Fc-tagged analytes by anti-human Fab IgGs (“Human Fab capture kit”, Order No. 28958325, Cytiva) covalently amine coupled to a Series S CM5 sensor chip (Cytiva). The amine coupling was carried out according to the manufacturer's instructions using 1-ethyl-3-(3-dimethylaminopropyl) carbodiimide hydrochloride (EDC), N-hydroxysuccinimide (NHS) and ethanolamine HCl, pH 8.5 (“Amine Coupling Kit” BR-1000-50, Cytiva.). For phage display hits Fc-tagged human and mouse Sema3A was used as analytes in a concentration range from 1.56-200 nM. Human, mouse, cynomolgus, rat, dog and pig monovalent Sema3A domain were used as analytes in a concentration series from […] in multi cycle kinetics mode or in 100 nM for binding analysis only. The sensor surface was regenerated with glycine pH 2.0 after each antigen injection. Obtained sensorgrams were double referenced (subtraction of reference flow cell signal and buffer injection) and were fitted to a 1:1 Langmuir binding model to derive kinetic data using the Biacore T200 Evaluation software.

[3] = target: T2, human wild-type Sema3A of SEQ ID NO: 600, expressed by HEK293 cells (human, UniProt Q14563 22-771, limits assumed); test: cell-based or functional assay
T2 sequence: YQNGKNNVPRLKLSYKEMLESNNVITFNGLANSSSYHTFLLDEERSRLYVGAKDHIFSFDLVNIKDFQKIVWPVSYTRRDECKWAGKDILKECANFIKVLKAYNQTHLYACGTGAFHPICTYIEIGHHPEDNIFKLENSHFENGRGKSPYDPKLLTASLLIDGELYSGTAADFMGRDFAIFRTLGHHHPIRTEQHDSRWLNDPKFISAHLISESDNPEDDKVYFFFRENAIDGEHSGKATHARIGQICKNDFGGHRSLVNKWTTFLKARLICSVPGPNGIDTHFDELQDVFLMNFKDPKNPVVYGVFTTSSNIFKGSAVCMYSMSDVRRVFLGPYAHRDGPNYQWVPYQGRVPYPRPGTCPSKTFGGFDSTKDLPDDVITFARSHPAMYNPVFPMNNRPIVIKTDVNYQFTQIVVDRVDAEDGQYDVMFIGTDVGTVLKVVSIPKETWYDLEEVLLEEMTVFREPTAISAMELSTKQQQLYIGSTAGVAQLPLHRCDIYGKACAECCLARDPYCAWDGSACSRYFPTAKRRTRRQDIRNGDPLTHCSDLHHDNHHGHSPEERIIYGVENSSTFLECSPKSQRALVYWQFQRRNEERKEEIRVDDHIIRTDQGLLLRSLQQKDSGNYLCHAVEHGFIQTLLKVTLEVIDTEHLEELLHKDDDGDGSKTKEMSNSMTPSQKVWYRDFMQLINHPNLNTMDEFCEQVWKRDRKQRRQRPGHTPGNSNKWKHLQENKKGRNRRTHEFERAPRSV

[4] = target: T3, Human Semaphorin3A-Fc (R&D Systems), TPP-13211 (human); test: ELISA, signal on TPP-13211 divided by signal on TPP-19068
T3 construct: R&D Systems 1250-S3; also called recombinant human Sema3A-Fc chimera
Description: In the in vivo situation Sema3A exists in both forms side by side.

[5] = target: T2, human wild-type Sema3A of SEQ ID NO: …; test: cell-based or functional assay; remark: listed apart in the source

T3 sequence (chain, as listed by the source limits assumed): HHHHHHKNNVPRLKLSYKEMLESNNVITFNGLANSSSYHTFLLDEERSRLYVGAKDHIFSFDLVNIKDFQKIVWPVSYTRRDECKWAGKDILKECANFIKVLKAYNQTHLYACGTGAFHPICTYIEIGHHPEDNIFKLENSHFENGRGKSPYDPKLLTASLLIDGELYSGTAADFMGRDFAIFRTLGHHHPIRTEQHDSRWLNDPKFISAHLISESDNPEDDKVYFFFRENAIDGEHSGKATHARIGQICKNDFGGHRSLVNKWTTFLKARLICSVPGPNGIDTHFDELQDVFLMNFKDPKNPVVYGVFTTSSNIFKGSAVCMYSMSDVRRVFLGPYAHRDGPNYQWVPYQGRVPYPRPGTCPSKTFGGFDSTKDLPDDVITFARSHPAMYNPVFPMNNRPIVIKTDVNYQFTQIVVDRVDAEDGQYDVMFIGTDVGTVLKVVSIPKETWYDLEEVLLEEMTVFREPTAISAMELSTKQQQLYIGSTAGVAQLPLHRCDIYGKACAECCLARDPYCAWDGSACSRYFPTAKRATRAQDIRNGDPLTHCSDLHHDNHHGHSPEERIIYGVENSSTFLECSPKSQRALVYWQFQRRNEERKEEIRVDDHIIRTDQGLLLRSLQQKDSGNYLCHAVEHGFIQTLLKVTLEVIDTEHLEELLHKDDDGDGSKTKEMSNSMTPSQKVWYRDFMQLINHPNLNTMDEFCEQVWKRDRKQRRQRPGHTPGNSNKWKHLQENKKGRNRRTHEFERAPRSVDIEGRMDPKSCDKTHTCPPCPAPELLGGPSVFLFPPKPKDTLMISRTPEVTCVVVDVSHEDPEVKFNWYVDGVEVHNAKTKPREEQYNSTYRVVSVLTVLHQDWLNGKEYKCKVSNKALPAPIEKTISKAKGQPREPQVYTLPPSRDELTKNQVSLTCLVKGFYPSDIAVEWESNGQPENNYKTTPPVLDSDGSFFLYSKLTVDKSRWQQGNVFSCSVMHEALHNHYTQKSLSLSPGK

EC50 (nM), GCC assay [1]: 2.4 nM
Kd [2]: 0.13 nM
EC50 (pM), HUVEC repulsion assay [3]: 80 pM
Ratio ELISA binding TPP-13211/TPP-19068 [4]: 0.66
EC50 (pM), HUVEC repulsion assay, second experiment [5]: 54 pM
B1: TPP-23298 (antibody, human IgG4 S228P, lambda, V domains shown)
VH: EVQLLESGGGLVQPGGSLRLSCAASGFTFYSYAMSWVRQAPGKGLEWVSAIGTGGDTYYADSVKGRFTISRDNSKNTLYLQMNSLRAEDTAVYYCARRDDYTSRDAFDYWGQGTLVTVSS
VL: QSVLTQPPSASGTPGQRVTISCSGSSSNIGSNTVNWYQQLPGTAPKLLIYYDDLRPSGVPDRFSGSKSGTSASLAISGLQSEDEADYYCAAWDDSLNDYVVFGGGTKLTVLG
